Assay results as given in patent US20220306695A1, “COMPSTATIN ANALOGUES AND THEIR MEDICAL USES” (priority 2019, published 2022).
Starred links: 1 amine or outer side, 2 acyl side, 3 side chain; linkers in the order of their positions; H or OH if unused. Positions of bridges follow the written chain, without caps; N, C: chain ends. Non-standard residues stand in square brackets, D forms with d. Groups on a side chain read outwards from the residue. *: point of attachment. Trp(1-Me) = Cn1cc(C[C@H](N)C(=O)O)c2ccccc21; C16 diacid = O=C(O)CCCCCCCCCCCCCCC(=O)*; γGlu = O=C(O)[C@H](CCC(=O)[*:2])N[*:1]; AEEA = NCCOCCOCC(=O)O; Sar = CNCC(=O)O

B1: Compound 75 (peptide)
peptide: Ac-SEFCI[Trp(1-Me)]QDWGEHRC[Sar]EA-NH2
modifications: disulfide 4-14
SMILES: CC[C@H](C)[C@@H]1NC(=O)[C@@H](NC(=O)[C@H](Cc2ccccc2)NC(=O)[C@H](CCC(=O)O)NC(=O)[C@H](CO)NC(C)=O)CSSC[C@@H](C(=O)N(C)CC(=O)N[C@@H](CCC(=O)O)C(=O)N[C@@H](C)C(N)=O)NC(=O)[C@H](CCCNC(=N)N)NC(=O)[C@H](Cc2c[nH]cn2)NC(=O)[C@H](CCC(=O)O)NC(=O)CNC(=O)[C@H](Cc2c[nH]c3ccccc23)NC(=O)[C@H](CC(=O)O)NC(=O)[C@H](CCC(N)=O)NC(=O)[C@H](Cc2cn(C)c3ccccc23)NC1=O
B2: Compound 82 (peptide)
peptide: Ac-SE[Sar]CI[Trp(1-Me)]QDWGEHRCTEA-NH2
modifications: disulfide 4-14
SMILES: CC[C@H](C)[C@@H]1NC(=O)[C@@H](NC(=O)CN(C)C(=O)[C@H](CCC(=O)O)NC(=O)[C@H](CO)NC(C)=O)CSSC[C@@H](C(=O)N[C@H](C(=O)N[C@@H](CCC(=O)O)C(=O)N[C@@H](C)C(N)=O)[C@@H](C)O)NC(=O)[C@H](CCCNC(=N)N)NC(=O)[C@H](Cc2c[nH]cn2)NC(=O)[C@H](CCC(=O)O)NC(=O)CNC(=O)[C@H](Cc2c[nH]c3ccccc23)NC(=O)[C@H](CC(=O)O)NC(=O)[C@H](CCC(N)=O)NC(=O)[C@H](Cc2cn(C)c3ccccc23)NC1=O
B3: Compound 92 (peptide)
peptide: Ac-ICIWQDWGEHRCTEGK([γGlu-C16 diacid])-NH2
modifications: disulfide 2-12
SMILES: CC[C@H](C)[C@H](NC(C)=O)C(=O)N[C@H]1CSSC[C@@H](C(=O)N[C@H](C(=O)N[C@@H](CCC(=O)O)C(=O)NCC(=O)N[C@@H](CCCCNC(=O)CC[C@H](NC(=O)CCCCCCCCCCCCCCC(=O)O)C(=O)O)C(N)=O)[C@@H](C)O)NC(=O)[C@H](CCCNC(=N)N)NC(=O)[C@H](Cc2c[nH]cn2)NC(=O)[C@H](CCC(=O)O)NC(=O)CNC(=O)[C@H](Cc2c[nH]c3ccccc23)NC(=O)[C@H](CC(=O)O)NC(=O)[C@H](CCC(N)=O)NC(=O)[C@H](Cc2c[nH]c3ccccc23)NC(=O)[C@H]([C@@H](C)CC)NC1=O
B4: Compound 93 (peptide)
peptide: Ac-ICIWQDWGEHRCTEGK([AEEA-AEEA-γGlu-C16 diacid])-NH2
modifications: disulfide 2-12
SMILES: CC[C@H](C)[C@H](NC(C)=O)C(=O)N[C@H]1CSSC[C@@H](C(=O)N[C@H](C(=O)N[C@@H](CCC(=O)O)C(=O)NCC(=O)N[C@@H](CCCCNC(=O)COCCOCCNC(=O)COCCOCCNC(=O)CC[C@H](NC(=O)CCCCCCCCCCCCCCC(=O)O)C(=O)O)C(N)=O)[C@@H](C)O)NC(=O)[C@H](CCCNC(=N)N)NC(=O)[C@H](Cc2c[nH]cn2)NC(=O)[C@H](CCC(=O)O)NC(=O)CNC(=O)[C@H](Cc2c[nH]c3ccccc23)NC(=O)[C@H](CC(=O)O)NC(=O)[C@H](CCC(N)=O)NC(=O)[C@H](Cc2c[nH]c3ccccc23)NC(=O)[C@H]([C@@H](C)CC)NC1=O

Target: Human C3 (human, UniProt P01024 23-1663)
Test: cell-based or functional assay

Chain of Human C3 (P01024 23-1663 limits assumed): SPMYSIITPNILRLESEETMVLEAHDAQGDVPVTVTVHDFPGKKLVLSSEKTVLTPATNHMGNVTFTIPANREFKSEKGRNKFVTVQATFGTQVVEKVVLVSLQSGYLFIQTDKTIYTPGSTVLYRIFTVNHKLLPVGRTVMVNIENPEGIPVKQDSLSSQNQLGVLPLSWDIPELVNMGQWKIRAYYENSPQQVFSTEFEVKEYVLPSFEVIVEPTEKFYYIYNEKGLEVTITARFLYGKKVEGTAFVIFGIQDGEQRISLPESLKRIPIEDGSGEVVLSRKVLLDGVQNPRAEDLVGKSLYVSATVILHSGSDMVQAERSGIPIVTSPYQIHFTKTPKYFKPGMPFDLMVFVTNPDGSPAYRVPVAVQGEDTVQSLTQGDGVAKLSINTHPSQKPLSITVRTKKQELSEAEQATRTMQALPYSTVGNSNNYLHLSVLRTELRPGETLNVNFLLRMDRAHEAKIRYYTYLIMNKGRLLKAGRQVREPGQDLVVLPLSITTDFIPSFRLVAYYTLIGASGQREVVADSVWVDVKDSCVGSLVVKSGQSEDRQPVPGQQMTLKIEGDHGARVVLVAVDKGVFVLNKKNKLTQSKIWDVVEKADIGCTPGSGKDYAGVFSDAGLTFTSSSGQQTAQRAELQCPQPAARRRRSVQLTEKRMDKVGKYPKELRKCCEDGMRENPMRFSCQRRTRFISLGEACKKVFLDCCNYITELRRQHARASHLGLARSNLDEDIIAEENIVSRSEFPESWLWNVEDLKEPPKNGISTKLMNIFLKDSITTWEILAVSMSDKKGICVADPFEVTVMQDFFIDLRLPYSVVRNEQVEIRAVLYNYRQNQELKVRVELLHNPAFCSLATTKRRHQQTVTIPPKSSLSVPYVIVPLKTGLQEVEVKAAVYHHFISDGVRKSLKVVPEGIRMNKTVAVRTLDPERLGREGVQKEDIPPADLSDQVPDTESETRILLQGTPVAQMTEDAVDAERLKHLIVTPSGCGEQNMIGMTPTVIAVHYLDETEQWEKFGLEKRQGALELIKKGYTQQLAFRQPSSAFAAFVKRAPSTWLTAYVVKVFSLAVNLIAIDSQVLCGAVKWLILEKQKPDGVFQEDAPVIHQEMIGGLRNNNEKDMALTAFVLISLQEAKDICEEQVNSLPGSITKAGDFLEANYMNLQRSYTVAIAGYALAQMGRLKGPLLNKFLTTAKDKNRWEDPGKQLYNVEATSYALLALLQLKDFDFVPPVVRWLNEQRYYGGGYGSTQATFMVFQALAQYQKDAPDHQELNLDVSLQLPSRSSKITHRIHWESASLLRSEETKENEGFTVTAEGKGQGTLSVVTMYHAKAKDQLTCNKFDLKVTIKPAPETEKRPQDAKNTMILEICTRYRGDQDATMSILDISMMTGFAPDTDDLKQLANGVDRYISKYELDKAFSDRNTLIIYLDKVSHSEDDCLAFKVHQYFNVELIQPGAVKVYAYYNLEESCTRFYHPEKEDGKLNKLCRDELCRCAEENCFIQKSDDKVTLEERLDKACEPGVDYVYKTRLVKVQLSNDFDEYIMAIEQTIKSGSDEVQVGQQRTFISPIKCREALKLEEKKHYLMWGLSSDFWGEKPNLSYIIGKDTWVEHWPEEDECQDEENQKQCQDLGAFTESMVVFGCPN

| Binder | IC50[nM], inhibition of hemolysis [nM] |
| --- | --- |
| B1 | < 100 |
| B2 | < 100 |
| B3 | < 1000 |
| B4 | < 500 |
